In PMC10883268:

Tests used:
[1] = target: SecY_(A103C-V353C)EG (E. coli) (UniProt P0AGA2)
[2] = target: SecY_(A103C-V353C)EG (E. coli) (UniProt P0AGA2); remark: listed apart in the source

SecA, sequence (P10408 whole entry): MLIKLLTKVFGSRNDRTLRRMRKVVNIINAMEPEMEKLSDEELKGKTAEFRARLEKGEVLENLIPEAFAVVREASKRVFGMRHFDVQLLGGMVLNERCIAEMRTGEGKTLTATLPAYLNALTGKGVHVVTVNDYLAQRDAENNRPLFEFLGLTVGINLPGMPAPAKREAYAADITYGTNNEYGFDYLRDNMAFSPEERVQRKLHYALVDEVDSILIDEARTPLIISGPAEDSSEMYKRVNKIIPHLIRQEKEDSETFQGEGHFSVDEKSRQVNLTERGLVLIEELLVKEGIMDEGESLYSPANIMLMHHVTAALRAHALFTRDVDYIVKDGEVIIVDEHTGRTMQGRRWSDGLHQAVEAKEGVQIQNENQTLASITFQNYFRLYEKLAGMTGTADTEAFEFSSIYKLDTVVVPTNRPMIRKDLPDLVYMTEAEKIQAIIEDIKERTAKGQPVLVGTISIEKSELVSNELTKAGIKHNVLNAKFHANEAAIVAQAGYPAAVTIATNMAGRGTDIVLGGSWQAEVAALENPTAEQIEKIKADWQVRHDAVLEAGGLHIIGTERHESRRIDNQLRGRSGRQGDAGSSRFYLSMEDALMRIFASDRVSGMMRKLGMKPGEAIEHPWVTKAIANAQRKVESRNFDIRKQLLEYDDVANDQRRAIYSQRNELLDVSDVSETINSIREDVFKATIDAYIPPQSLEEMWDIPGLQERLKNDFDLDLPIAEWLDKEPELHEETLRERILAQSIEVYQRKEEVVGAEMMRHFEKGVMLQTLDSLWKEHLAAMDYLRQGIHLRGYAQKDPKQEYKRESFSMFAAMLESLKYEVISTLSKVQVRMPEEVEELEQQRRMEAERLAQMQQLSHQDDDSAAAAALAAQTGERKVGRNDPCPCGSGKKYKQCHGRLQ

SecA (from UniProt P10408 1-901) (enzyme)
smFRET between dyes on SecY C103 and C353 in proteoliposomes: balance of open and closed states with 1 µM SecA, no nucleotide, no SS, against SecYEG alone [1]: 2 fold
smFRET between dyes on SecY C103 and C353 in proteoliposomes: percent of time in the closed state with SecA, no nucleotide (~81% for SecYEG alone) [2]: > 91%
